# Experimental data: article PMC3441751, “Structure and Assembly of a Trans-Periplasmic Channel for Type IV Pili in Neisseria meningitidis” (PLoS Pathogens, 2012)
# Biological target: the molecule itself
# Assay: cryo-EM structure; single particle averaging of unstained frozen-hydrated PilQ complexes in a dodecyl maltoside-containing buffer at 1 mg/ml; 25,303 particles; C12 symmetry
protein,measurement,value
"PilQ dodecamer (complete N. meningitidis PilQ oligomer) (natural protein, PilQ secretin, Neisseria meningitidis; The source of the sample is in Text S1; also called entire PilQ dodecamer; intact PilQ oligomer; source: PilQ complexes resuspended in a dodecyl maltoside-containing buffer at 1 mg/ml; copies: 12) GNITDIKVSSLPNKQKIVKVSFDKEIVNPTGFVTSSPARIALDFEQTGISMDQQVLEYADPLLSKISAAQNSSRARLVLNLNKPGQYNTEVRGNKVWIFINESDDTVSAPARPAVKAAPAAPAKQQAAAPSTKSAVSVSEPFTPAKQQAAAPFTESVVSVSAPFSPAKQQAAASAKQQAAAPAKQQAAAPAKQQAAAPAKQTNIDFRKDGKNAGIIELAALGFAGQPDISQQHDHIIVTLKNHTLPTTLQRSLDVADFKTPVQKVTLKRLNNDTQLIITTAGNWELVNKSAAPGYFTFQVLPKKQNLESGGVNNAPKTFTGRKISLDFQDVEIRTILQILAKESGMNIVASDSVNGKMTLSLKDVPWDQALDLVMQARNLDMRQQGNIVNIAPRDELLAKDKALLQAEKDIADLGALYSQNFQLKYKNVEEFRSILRLDNADTTGNRNTLISGRGSVLIDPATNTLIVTDTRSVIEKFRKLIDELDVPAQQVMIEARIVEAADGFSRDLGVKFGATGKKKLKNDTSAFGWGVNSGFGGDDKWGAETKINLPITAAANSISLVRAISSGALNLELSASESLSKTKTLANPRVLTQNRKEAKIESGYEIPFTVTSIANGGSSTNTELKKAVLGLTVTPNITPDGQIIMTVKINKDSPAQCASGNQTILCISTKNLNTQAMVENGGTLIVGGIYEEDNGNTLTKVPLLGDIPVIGNLFKTRGKKTDRRELLIFITPRIMGTAGNSLRY",stoichiometry N,12
